± gives the standard deviation of the averaged measurements.
System: Saccharomyces cerevisiae
Assay: protein stability index of tFT-peptide fusion (C-terminal peptide) (PSI (0-1 scale)); higher = more stable (slower turnover)
Conditions: genetic background: das1 deletion; temperature: 30 C
Experimental: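 MPS profiling in S. cerevisiae of the yeast C-terminome library: the last 12 aa of each annotated ORF are fused to the C-terminus of a sfGFP-mCherry timer, after a GGGS linker. Cells are FACS-sorted into 8 mCherry/sfGFP bins and deep-sequenced. PSI runs from 0 (unstable) to 1 (stable); wild type and das1Δ backgrounds, two technical replicates each.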

First: LIEDVNKLKIKA [SOV1 C-terminal 12 aa]
Second: LISRRREDEERN [YPL216W C-terminal 12 aa]
The protein stability index of the first is lower: 0.634 ± 0.029 for the first, 0.788 ± 0.038 for the second.

Going from LIVVLLLLLLVL [SYN8 C-terminal 12 aa] to LKEASRYILEVY [MET10 C-terminal 12 aa], the protein stability index falls from 0.446 ± 0.0069 to 0.28 ± 0.013.

First: LKGILNLFSKIR [KRE29 C-terminal 12 aa]
Second: LKHFVSAPSSSL [MRK1 C-terminal 12 aa]
The protein stability index of the first is lower: 0.671 ± 0.0078 for the first, 0.699 ± 0.011 for the second.

LKNKKKLYKTKV [PPQ1 C-terminal 12 aa] and LKTSGRYQEDVW [NCP1 C-terminal 12 aa] are within error of each other in protein stability index: 0.7157 ± 0.0043 for the first, 0.706 ± 0.02 for the second.

Going from LLEVSDQAFEPE [RGD1 C-terminal 12 aa] to LLGENLSDMPSL [RDS1 C-terminal 12 aa], the protein stability index falls from 0.6967 ± 0.0019 to 0.6893 ± 0.0025.

Going from LLQHPWLDAHII [STE11 C-terminal 12 aa] to LLQVCFIGVVCE [IRC21 C-terminal 12 aa], the protein stability index falls from 0.722 ± 0.028 to 0.275 ± 0.0082.

LNAVESLKEAST [TIM11 C-terminal 12 aa] and LNKIKNIRKKKQ [SNQ2 C-terminal 12 aa] are within error of each other in protein stability index: 0.69 ± 0.0078 for the first, 0.705 ± 0.031 for the second.

Compared with LNLPVQVEKKEK [MMR1 C-terminal 12 aa], LNSYEEEANGST [SHG1 C-terminal 12 aa] is higher in protein stability index: 0.69221 ± 0.00034 for the first, 0.7062 ± 0.0036 for the second.

LQHYRTHLKKGQ [NRG1 C-terminal 12 aa] and LQSLPISSWRCT [YBR220C C-terminal 12 aa] are the same in protein stability index: 0.7007 ± 0.0015 for the first, 0.701 ± 0.0098 for the second.

Going from LQVILMSLGAIA [MDM31 C-terminal 12 aa] to LRANANMPTPSL [RLF2 C-terminal 12 aa], the protein stability index rises from 0.446 ± 0.014 to 0.7083 ± 0.0022.

LRKDRQVEYPYK [MGM101 C-terminal 12 aa] and LRLKYNDANTKL [VTC1 C-terminal 12 aa] are within error of each other in protein stability index: 0.723 ± 0.033 for the first, 0.68 ± 0.011 for the second.

Compared with LSCRKNLSAFAT [YOL085C C-terminal 12 aa], “LSIMKTLVPWTL [YML054C-A C-terminal 12 aa]” is higher in protein stability index: 0.658 ± 0.018 for the first, 0.712 ± 0.024 for the second.

LTEILSKVFNRL [DUG2 C-terminal 12 aa] and LTFDVKLVSMKN [FPR3 C-terminal 12 aa] are within error of each other in protein stability index: 0.702 ± 0.018 for the first, 0.679 ± 0.025 for the second.

LTLARYRAKGML [TOM71 C-terminal 12 aa] and LVICCQRCRRNC [YPL277C C-terminal 12 aa] are within error of each other in protein stability index: 0.6936 ± 0.0042 for the first, 0.69 ± 0.0082 for the second.

Compared with LVKLYISFFFMC [YBR144C C-terminal 12 aa], LVLLLQIYFFSF [YGR242W C-terminal 12 aa] is lower in protein stability index: 0.313 ± 0.0049 for the first, 0.277 ± 0.03 for the second.

LVRQKREHEKKE [GPT2 C-terminal 12 aa] and LVYRDGEISELK [PAT1 C-terminal 12 aa] are within error of each other in protein stability index: 0.713 ± 0.0084 for the first, 0.7114 ± 0.0045 for the second.

LWNEFLSSINEK [ECM31 C-terminal 12 aa] and MAMPPGQSQPQY [DHH1 C-terminal 12 aa] are within error of each other in protein stability index: 0.736 ± 0.036 for the first, 0.727 ± 0.0093 for the second.

Compared with MCSIINIQQWYV [YGL182C C-terminal 12 aa], MDGFNDPFAAAA [GIP2 C-terminal 12 aa] is higher in protein stability index: 0.6733 ± 0.0013 for the first, 0.736 ± 0.028 for the second.

“MDSGLDLEFCKP [YKR075W-A C-terminal 12 aa]” and MESNDNLERVLS [APS1 C-terminal 12 aa] are within error of each other in protein stability index: 0.687 ± 0.019 for the first, 0.673 ± 0.038 for the second.

MISGPSSSSSAP [CYC3 C-terminal 12 aa] and MKVLQLGFSWGG [IRC7 C-terminal 12 aa] are within error of each other in protein stability index: 0.719 ± 0.012 for the first, 0.7148 ± 0.0053 for the second.

MMNFFRDLKYGH [ODC2 C-terminal 12 aa] and MNKAEDDISEEE [SUB1 C-terminal 12 aa] are within error of each other in protein stability index: 0.704 ± 0.004 for the first, 0.713 ± 0.029 for the second.

First: MNRNKSDVPYLQ [YER053C-A C-terminal 12 aa]
Second: MPPEHPFYSHYR [YNL193W C-terminal 12 aa]
The protein stability index of the first is lower: 0.702 ± 0.014 for the first, 0.7283 ± 0.0031 for the second.

MQTKIEHYMESI [MRX12 C-terminal 12 aa] and MRKHLRVSPFLF [YDL071C C-terminal 12 aa] are within error of each other in protein stability index: 0.712 ± 0.028 for the first, 0.711 ± 0.016 for the second.

Compared with MVVIVLFLSYRN [YGL177W C-terminal 12 aa], MWPMPSLPWNGM [TSR1 C-terminal 12 aa] is higher in protein stability index: 0.276 ± 0.034 for the first, 0.727 ± 0.019 for the second.

First: NAASLIGTQQNN [DNF1 C-terminal 12 aa]
Second: NALKSKQKNKDD [AYR1 C-terminal 12 aa]
The protein stability index of the first is higher: 0.709 ± 0.013 for the first, 0.684 ± 0.0082 for the second.

NCPGCESKPVIT [SSL1 C-terminal 12 aa] and NDDSKDEVDIIP [YPR196W C-terminal 12 aa] are within error of each other in protein stability index: 0.678 ± 0.016 for the first, 0.69 ± 0.013 for the second.

NDISFAFQYISH [RAD54 C-terminal 12 aa] and NDNHNPFYIREE [CDC26 C-terminal 12 aa] are within error of each other in protein stability index: 0.749 ± 0.014 for the first, 0.723 ± 0.021 for the second.

NEKLSRESKGSE [SYF2 C-terminal 12 aa] and NENEFIAICTDS [CDC31 C-terminal 12 aa] are within error of each other in protein stability index: 0.687 ± 0.01 for the first, 0.698 ± 0.02 for the second.

NENIHSLIGNSY [NNF2 C-terminal 12 aa] and NENSEIISIDED [CTR86 C-terminal 12 aa] are within error of each other in protein stability index: 0.702 ± 0.023 for the first, 0.676 ± 0.0078 for the second.

NFQREVIDNSKL [LDH1 C-terminal 12 aa] and NGKKNEAYEGFV [EXP1 C-terminal 12 aa] are within error of each other in protein stability index: 0.697 ± 0.015 for the first, 0.699 ± 0.015 for the second.

First: NIIHSGDVLLAE [LEU9 C-terminal 12 aa]
Second: NILKVDSNSSSS [RGR1 C-terminal 12 aa]
The protein stability index of the first is lower: 0.677 ± 0.019 for the first, 0.7201 ± 0.0019 for the second.

First: NKGPPCKTSALL [HMG2 C-terminal 12 aa]
Second: NKNLHGINTNEF [TRE1 C-terminal 12 aa]
The protein stability index of the first is higher: 0.739 ± 0.023 for the first, 0.7067 ± 0.0039 for the second.

Going from “NLPFYKNQATLQ [YBR131C-A C-terminal 12 aa]” to NLRADSFLQYPL [YDR029W C-terminal 12 aa], the protein stability index rises from 0.6902 ± 0.005 to 0.704 ± 0.0075.

Compared with NNKSIQKVNSPS [PAC2 C-terminal 12 aa], NPHPRIQMKMSV [CDC21 C-terminal 12 aa] is lower in protein stability index: 0.709 ± 0.0075 for the first, 0.663 ± 0.035 for the second.

First: NPPERAKVNARS [RCR1 C-terminal 12 aa]
Second: NPSLRQSRIQGW [YGR161W-C C-terminal 12 aa]
The protein stability index of the first is lower: 0.675 ± 0.017 for the first, 0.725 ± 0.005 for the second.

NPTALEKGIKDL [TRX3 C-terminal 12 aa] and NPVVNRHIEHDD [COX13 C-terminal 12 aa] are within error of each other in protein stability index: 0.714 ± 0.025 for the first, 0.701 ± 0.011 for the second.

NRPGKSRRARRF [EBP2 C-terminal 12 aa] and NSAGLLTLEYLS [TFC6 C-terminal 12 aa] are within error of each other in protein stability index: 0.694 ± 0.026 for the first, 0.696 ± 0.012 for the second.

NSKSNGNLFNSQ [NDD1 C-terminal 12 aa] and NTSLLFKKWEGS [CEM1 C-terminal 12 aa] are within error of each other in protein stability index: 0.72 ± 0.015 for the first, 0.707 ± 0.01 for the second.

Compared with NTSTYGQTVQPV [YLR456W C-terminal 12 aa], NVSDLFQWQNAK [CAT8 C-terminal 12 aa] is higher in protein stability index: 0.6791 ± 0.00098 for the first, 0.744 ± 0.017 for the second.

Compared with NVTAVKALNECF [SKI3 C-terminal 12 aa], NWDQHNPRNSIH [IRC10 C-terminal 12 aa] is higher in protein stability index: 0.6887 ± 0.0054 for the first, 0.719 ± 0.013 for the second.

Compared with NYTLTVENKNKV [SPC3 C-terminal 12 aa], PAAIKQAIAANA [TRX1 C-terminal 12 aa] is lower in protein stability index: 0.693 ± 0.051 for the first, 0.45 ± 0.014 for the second.

— the supplement of paper PMC10724198
